In article PMC10241049, “Derivation of the small-angle scattering profile of a target biomacromolecule from a profile deteriorated by aggregates. AUC–SAS” (Journal of Applied Crystallography, 2023):

Target: the molecule itself
Experiment: AUC + other: small-angle X-ray scattering (AUC-SAS); sedimentation velocity AUC (45 000 r/min, interference optics) and laboratory SAXS, 298 K; 2.0 mg/ml in 100 mM Tris-HCl pH 7.5, 100 mM NaCl; the derived profile of the main component was compared with the structure of the 24-mer and with SEC-SAXS

B1: apoferritin (natural protein)
chain: SSQIRQNYSTEVEAAVNRLVNLYLRASYTYLSLGFYFDRDDVALEGVCHFFRELAEEKREGAERLLKMQNQRGGRALFQDLQKPSQDEWGTTLDAMKAAIVLEKSLNQALLDLHALGSAQADPHLCDFLESHFLDEEVKLIKKMGDHLTNIQRLVGSQAGLGEYLFERLTLKHD
notes: apoferritin; it uses PDB 4v1w as the structure of this protein; PDB 4v1w is horse spleen apoferritin (light chain); also called AF; AF5; source: bought: Merck, Sigma-Aldrich; purified by SEC (Superose 6 Increase 10/300 GL); copies: 24
stoichiometry N: 24
